According to patent US20120276102A1 (Pfizer, published 2012):

T1: human IL-2Rβ (human, UniProt P14784 27-239)
T1 sequence (looked up): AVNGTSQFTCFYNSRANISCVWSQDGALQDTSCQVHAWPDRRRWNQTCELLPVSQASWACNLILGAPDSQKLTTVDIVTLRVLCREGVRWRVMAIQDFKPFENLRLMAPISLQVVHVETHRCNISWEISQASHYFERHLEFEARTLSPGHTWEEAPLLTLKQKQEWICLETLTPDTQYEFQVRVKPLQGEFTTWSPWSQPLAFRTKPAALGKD

T2: human gamma (γ) common chain expressed on CHO cells (human, UniProt P31785 23-369)
T2 construct: whole, on cells; Control protein; also called human IL-2R-γ common subunit; human γ-common
T2 sequence (looked up): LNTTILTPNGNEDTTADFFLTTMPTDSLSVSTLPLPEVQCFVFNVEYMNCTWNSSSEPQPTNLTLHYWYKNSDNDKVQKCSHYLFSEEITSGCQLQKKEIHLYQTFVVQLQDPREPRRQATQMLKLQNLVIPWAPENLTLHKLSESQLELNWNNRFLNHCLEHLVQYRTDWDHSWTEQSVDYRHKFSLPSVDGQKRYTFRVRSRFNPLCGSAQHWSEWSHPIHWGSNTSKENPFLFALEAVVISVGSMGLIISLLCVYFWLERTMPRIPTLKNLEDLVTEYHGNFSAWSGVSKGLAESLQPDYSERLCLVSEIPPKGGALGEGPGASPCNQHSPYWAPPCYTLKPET


Experiments:
human IL-2Rβ = biological target: T1, human IL-2Rβ; assay: SPR, Ab captured
Description: (§1) The specificity of binding of a subset of transiently expressed anti-IL-21R binding proteins (here antibodies) was tested on a BIACORE™ 2000 surface plasmon resonance instrument. Anti-human-IgG, anti-murine immunoglobulin antibodies, and murine IL-21R-H/F were immobilized onto a research-grade carboxymethyl-dextran chip (CM5) using standard amine coupling. The sensor chip surface was activated with EDC/NHS for 7 min at a flow rate of 20 μl/min. The first flow cell was used as reference surface to correct for bulk refractive index, matrix effects, and nonspecific binding. […] Remaining activated groups were blocked with 1.0 M ethanolamine (pH 8.0). The molecular weights of the anti-human IgG and the anti-murine IgG were both 150 kD, and the molecular weight of the IL-21R monomer was 27 kD.
(§2) Conditioned media containing anti-IL-21R antibodies and antibody controls (murine anti-human IL-2Rβ and murine anti-human IL-4R(R&D Systems, Minneapolis, Minn.); human anti-human IL-13 (Wyeth, Cambridge, Mass.)) were diluted in HBS/EP buffer supplemented with 0.2% bovine serum and injected onto all four flow cells of the BIACORE™ chip, capturing 500-700 (RU) of antibody on the species-appropriate capture antibody. Following a 5 sec washing period, 50 nM solutions of a positive control protein (murine IL-21R-H/F), two human proteins related to IL-21R (human IL-2Rβ and human sIL-4R(R&D Systems)), or an unrelated His/FLAG-tagged protein (human IL-13-H/F) were injected over the captured antibodies on the chip. The association and dissociation phases were monitored for 120 and 180 sec, respectively, followed by two 5 μl injections of glycine (pH 1.5) to regenerate a fully active capturing surface. All binding experiments were done at 25° C. in HBS/EP buffer. Blank and buffer effects were subtracted for each sensorgram using double referencing.

human soluble IL-4R = biological target: T3, human soluble IL-4R (human, UniProt P24394 26-232, limits assumed); assay: SPR, Ab captured
T3 construct: also called human sIL-4R
Description: as §1, §2

human IL-13-His/FLAG = biological target: T4, human IL-13-His/FLAG (human, UniProt P35225 35-146, limits assumed); assay: SPR, Ab captured
T4 construct: Unrelated His/FLAG-tagged control; also called human IL-13-H/F
Description: as §1, §2

[1] = biological target: T5, human IL-21R expressed on cells (human, UniProt Q9HBE5 20-538); assay: cell ELISA, CHO cells
T5 construct: also called human IL-21R-BaF3; human IL-21R-TF1
Description: (§3) A subset of binding proteins was tested for binding to rat, cynomolgus monkey, human IL-21R, or human IL-2R-γ common subunit expressed transiently on the surfaces of CHO-PA-Dukx cells. Cells were transfected 48 hr prior to the assay. On the day of the assay, cells were washed gently 5× in PBS containing 0.9 mM CaCl₂ and 0.45 mM MgCl₂ (PBS/CaMg) on an automated plate washer (Titertek, Huntsville, Ala.), and blocked for 1 hr at RT in PBS/CaMg/5% nonfat dry milk. Conditioned media from transiently expressed anti-IL-21R IgGs were serially diluted in blocking buffer and added to the cells in the blocked plates for 1 hr at RT. Cells were washed 5× with PBS/CaMg and then incubated with horseradish peroxidase-conjugated anti-human IgG for 1 hr at RT. Cells were then washed 10× in PBS/CaMg and all of the wash buffer was removed. Cells were incubated with 100 μl TMB until the color reaction reached saturation, stopped with 100 μl of 0.18 M H₂SO₄, and read at A450 on a Perkin Elmer ENVISION™ plate reader.

[2] = biological target: T6, rat IL-21R expressed on cells (rat); assay: cell ELISA, CHO cells
T6 construct: whole, on cells
Description: as §3

[3] = biological target: T7, cynomolgus monkey IL-21R expressed on cells (cynomolgus monkey, UniProt G7Q0S8 41-559); assay: cell ELISA, CHO cells
T7 construct: whole, on cells
Description: as §3

[4] = biological target: T5, human IL-21R expressed on cells; assay: cell-based or functional assay
[5] = biological target: murine IL-21R expressed on cells (murine, UniProt Q9JHX3 20-529); assay: cell-based or functional assay
[6] = biological target: T5, human IL-21R expressed on cells; assay: cell-based ELISA on CHO cells transiently expressing human IL-21R; HRP anti-human IgG, A450
Description: (§4) FIG. 6(a-l) depicts the binding of 21 anti-IL-21R IgGs to CHO cells transiently expressing human IL-21R (FIGS. 6a-c), rat IL-21R (FIGS. 6d-f), cynomolgus monkey IL-21R (FIGS. 6g-i), and human gamma common chain (FIGS. 6j-1). CHO cells were transiently transfected with IL-21R or the control gamma common chain, and binding was detected with HRP-conjugated anti-human IgG in a cell-based ELISA.
as §3

[7] = biological target: T7, cynomolgus monkey IL-21R expressed on …; assay: cell-based ELISA on CHO cells transiently expressing cynomolgus monkey IL-21R; HRP anti-human IgG, A450
Description: as §4, §3

[8] = biological target: T6, rat IL-21R expressed on cells; assay: cell-based ELISA on CHO cells transiently expressing rat IL-21R; HRP anti-human IgG, A450
Description: as §4, §3

[9] = biological target: T2, human gamma (γ) common chain expressed …; assay: cell ELISA, CHO cells
Description: as §3

[10] = biological target: T2, human gamma (γ) common chain expressed …; assay: cell-based ELISA on CHO cells transiently expressing human gamma common chain; HRP anti-human IgG, A450
Description: as §4, §3

T4 sequence (P35225 35-146 limits assumed): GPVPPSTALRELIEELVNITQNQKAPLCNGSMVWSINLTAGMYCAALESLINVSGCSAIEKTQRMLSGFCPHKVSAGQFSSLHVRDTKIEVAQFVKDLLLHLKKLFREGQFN
Sequence of murine IL-21R expressed on cells (Q9JHX3 20-529 limits assumed): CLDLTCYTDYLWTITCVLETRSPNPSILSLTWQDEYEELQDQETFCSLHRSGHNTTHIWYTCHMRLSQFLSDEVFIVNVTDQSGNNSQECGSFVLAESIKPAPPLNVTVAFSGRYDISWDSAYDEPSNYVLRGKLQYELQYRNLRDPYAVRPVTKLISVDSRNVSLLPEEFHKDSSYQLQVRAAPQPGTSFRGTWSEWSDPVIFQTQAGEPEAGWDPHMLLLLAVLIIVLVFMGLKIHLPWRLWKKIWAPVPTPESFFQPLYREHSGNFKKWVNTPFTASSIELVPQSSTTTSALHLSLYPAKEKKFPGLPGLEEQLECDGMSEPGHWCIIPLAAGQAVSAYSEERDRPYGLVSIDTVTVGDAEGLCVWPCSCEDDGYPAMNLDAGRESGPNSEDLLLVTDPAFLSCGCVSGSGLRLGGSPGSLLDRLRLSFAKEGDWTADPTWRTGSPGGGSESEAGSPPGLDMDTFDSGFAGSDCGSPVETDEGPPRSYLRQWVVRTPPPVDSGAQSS
T5 sequence (Q9HBE5 20-538 limits assumed): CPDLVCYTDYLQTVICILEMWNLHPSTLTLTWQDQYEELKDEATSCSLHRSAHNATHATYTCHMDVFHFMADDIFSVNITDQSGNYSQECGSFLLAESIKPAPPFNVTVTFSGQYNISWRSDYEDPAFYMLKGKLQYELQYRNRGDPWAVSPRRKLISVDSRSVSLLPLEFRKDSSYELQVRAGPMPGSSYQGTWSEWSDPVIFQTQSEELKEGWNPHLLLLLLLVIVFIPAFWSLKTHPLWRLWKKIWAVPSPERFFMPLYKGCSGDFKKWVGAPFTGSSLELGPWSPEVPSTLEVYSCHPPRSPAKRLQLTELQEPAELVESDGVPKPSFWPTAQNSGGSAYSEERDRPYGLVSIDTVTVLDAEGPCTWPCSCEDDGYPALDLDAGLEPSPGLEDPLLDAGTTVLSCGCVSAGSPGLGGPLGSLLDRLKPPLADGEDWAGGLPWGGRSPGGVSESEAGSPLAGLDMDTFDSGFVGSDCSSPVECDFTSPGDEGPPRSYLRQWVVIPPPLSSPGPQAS

Binder | binding result (human IL-2Rβ) | binding result (human soluble IL-4R) | binding result (human IL-13-His/FLAG) | A450 (13 nM Ab) [1] [A450] | A450 (13 nM Ab) [2] [A450] | A450 (13 nM Ab) [3] [A450] | Human IL-21R-BaF3 Proliferation IC50 [4] [nM] | Human IL-21R-TF1 Proliferation IC50 [4] [nM] | Murine IL-21R-BaF3 Proliferation IC50 [5] [nM] | EC50 (read off the curve) [6] [nM] | EC50 (read off the curve) [7] [nM] | EC50 (read off the curve) [8] [nM] | A450 (13 nM Ab) [9] [A450] | binding result [10]
AbD (antibody, IgG1, V domains shown, As for AbA: IgG1/lambda, CDR3 graft, residue limits derived; also called VHP/VL13) VH: QVQLQESGPGLVKPSETLSLTCAVSGYSISSGYYWGWIRQPPGKGLEWIGSISHTGNTYYNPPLKSRVTISVDTSKNQFSLKLSSVTAADTAVYYCARGGGISRPEYWGQGTLVTVSS VL: SSELTQDPAVSVALGQTVRITCQGDSLRTYYASWYQQKPGQAPVLVIYGKHKRPSGIPDRFSGSSSGNTASLTITGAQAEDEADYYCVTRNRYGNPHVLFGGGTQLTVL | no binding (tested: 50 nM) | no binding (tested: 50 nM) | no binding (tested: 50 nM) | 1.25 | 0.874 | 1.38 | 0.91 | 2.67 | 0.01 | ~0.9 | ~2 |  |  | 
AbH (antibody, IgG1, V domains shown, As for AbA: IgG1/lambda, CDR3 graft, residue limits derived; also called VHP/VL19) VH: QVQLQESGPGLVKPSETLSLTCAVSGYSISSGYYWGWIRQPPGKGLEWIGSISHTGNTYYNPPLKSRVTISVDTSKNQFSLKLSSVTAADTAVYYCARGGGISRPEYWGQGTLVTVSS VL: SSELTQDPAVSVALGQTVRITCQGDSLRTYYASWYQQKPGQAPVLVIYGKHKRPSGIPDRFSGSSSGNTASLTITGAQAEDEADYYCVARAVRGNPHVLFGGGTQLTVL | no binding (tested: 50 nM) | no binding (tested: 50 nM) | no binding (tested: 50 nM) | 1.35 | 1.1 | 1.32 | 0.94 | 3.64 | 0.327 | ~0.4 | ~0.5 |  |  | 
AbF (antibody, IgG1, V domains shown, As for AbA: IgG1/lambda, CDR3 graft, residue limits derived; also called VHP/VL17) VH: QVQLQESGPGLVKPSETLSLTCAVSGYSISSGYYWGWIRQPPGKGLEWIGSISHTGNTYYNPPLKSRVTISVDTSKNQFSLKLSSVTAADTAVYYCARGGGISRPEYWGQGTLVTVSS VL: SSELTQDPAVSVALGQTVRITCQGDSLRTYYASWYQQKPGQAPVLVIYGKHKRPSGIPDRFSGSSSGNTASLTITGAQAEDEADYYCSTRSRKGNPHVLFGGGTQLTVL | no binding (tested: 50 nM) | no binding (tested: 50 nM) | no binding (tested: 50 nM) | 1.35 | 1 | 1.46 | 0.54 | 2.41 | 0.304 | ~0.5 | ~0.5 | ~0.7 |  | 

The remaining lines, values ahead:

binding result (human IL-2Rβ) | binding result (human soluble IL-4R) | binding result (human IL-13-His/FLAG) | A450 (13 nM Ab) [1] [A450] | A450 (13 nM Ab) [2] [A450] | A450 (13 nM Ab) [3] [A450] | Human IL-21R-BaF3 Proliferation IC50 [4] [nM] | Human IL-21R-TF1 Proliferation IC50 [4] [nM] | Murine IL-21R-BaF3 Proliferation IC50 [5] [nM] | EC50 (read off the curve) [6] [nM] | EC50 (read off the curve) [7] [nM] | EC50 (read off the curve) [8] [nM] | A450 (13 nM Ab) [9] [A450] | binding result [10] | Binder
no binding (tested: 50 nM) | no binding (tested: 50 nM) | no binding (tested: 50 nM) | 1.26 | 1.11 | 1.42 | 0.56 | 2.28 | 0.04 |  |  | ~0.8 |  |  | AbE (antibody, IgG1, V domains shown, As for AbA: IgG1/lambda, CDR3 graft, residue limits derived; also called VHP/VL14) VH: QVQLQESGPGLVKPSETLSLTCAVSGYSISSGYYWGWIRQPPGKGLEWIGSISHTGNTYYNPPLKSRVTISVDTSKNQFSLKLSSVTAADTAVYYCARGGGISRPEYWGQGTLVTVSS VL: SSELTQDPAVSVALGQTVRITCQGDSLRTYYASWYQQKPGQAPVLVIYGKHKRPSGIPDRFSGSSSGNTASLTITGAQAEDEADYYCMARSRKGNPHVLFGGGTQLTVL
no binding (tested: 50 nM) | no binding (tested: 50 nM) | no binding (tested: 50 nM) | 1.24 | 1.09 | 1.21 | 1 | 3.8 | 0.224 | ~0.9 | ~0.4 |  | 0.107 | no binding (tested: 13 nM) | AbI (antibody, IgG1, V domains shown, As for AbA: IgG1/lambda, CDR3 graft, residue limits derived; also called VHP/VL24) VH: QVQLQESGPGLVKPSETLSLTCAVSGYSISSGYYWGWIRQPPGKGLEWIGSISHTGNTYYNPPLKSRVTISVDTSKNQFSLKLSSVTAADTAVYYCARGGGISRPEYWGQGTLVTVSS VL: SSELTQDPAVSVALGQTVRITCQGDSLRTYYASWYQQKPGQAPVLVIYGKHKRPSGIPDRFSGSSSGNTASLTITGAQAEDEADYYCIARSNKGNPHVLFGGGTQLTVL
no binding (tested: 50 nM) | no binding (tested: 50 nM) | no binding (tested: 50 nM) | 1.45 | 1.26 | 1.51 | 0.68 | 4.25 | 0.227 | ~1 | ~0.9 |  |  |  | AbL (antibody, IgG1, V domains shown, As for AbA: IgG1/lambda, CDR3 graft, residue limits derived; also called VH3/VL13) VH: QVQLQESGPGLVKPSETLSLTCAVSGYSISSGYYWGWIRQPPGKGLEWIGSISHTGNTYYNPPLKSRVTISVDTSKNQFSLKLSSVTAADTAVYYCARFMGFGRPEYWGQGTLVTVSS VL: SSELTQDPAVSVALGQTVRITCQGDSLRTYYASWYQQKPGQAPVLVIYGKHKRPSGIPDRFSGSSSGNTASLTITGAQAEDEADYYCVTRNRYGNPHVLFGGGTQLTVL
